Results on 1 molecule are retold here after patent publication US8986682B2, “Method to increase the absorption of unsaturated fatty acids by human infants” (Swedish Orphan Biovitrum AB (publ), priority 2010, dated 2015).

The data set is described as follows: Specific activity with PNPB substrate, sodium cholate as bile-salt activator. Type of data set: biochemical. The note with it: after HA-HPLC and SE-HPLC purification. The procedure:
Differences in functional properties are observed between rhBSSL-CHO and BSSL-MAM and from rhBSSL-OVI. The specific activity of rhBSSL-CHO is observed to be higher than that of the other forms of BSSL. The specific activities of BSSL-MAM and rhBSSL-OVI are only 80% of that of rhBSSL-CHO based on mass. Each sample is specifically purified by HA-HPLC and SE-HPLC before determination of specific activity. Specific activity is determined using 4-nitrophenyl ester butyric acid (PNPB) as a substrate for BSSL, and detection of the release of 4-nitrophenol. Briefly, a dilution series of rhBSSL (for example, from 20 to 160 ng activity/mL) is prepared in PBS with 0.1% BSA. 200 μl of these rhBSSL solutions is added to 25 μl of an activation solution containing 20 mM sodium cholate (as bile-salt activator) in PBS with 0.1% BSA. These solutions are preincubated in a spectrophotometer at 27° C. for 5 minutes. Just before measuring, 25 μl of a well-mixed substrate solution containing 5 mM PNPB in PBS-Tween is added. The formation of 4-nitrophenol can be detected by its absorbance at 400 nm and the increase in absorbance is measured during 90 seconds. The active amount of BSSL is determined using a standard curve of an rhBSSL reference standard.

B1: rhBSSL: recombinant human bile-salt-stimulated lipase, SEQ ID. NO. 1, expressed from recombinant CHO cells; used in both clinical trials (protein, listed as Homo sapiens)
chain: AKLGAVYTEGGFVEGVNKKLGLLGDSVDIFKGIPFAAPTKALENPQPHPGWQGTLKAKNFKKRCLQATITQDSTYGDEDCLYLNIWVPQGRKQVSRDLPVMIWIYGGAFLMGSGHGANFLNNYLYDGEEIATRGNVIVVTFNYRVGPLGFLSTGDANLPGNYGLRDQHMAIAWVKRNIAAFGGDPNNITLFGESAGGASVSLQTLSPYNKGLIRRAISQSGVALSPWVIQKNPLFWAKKVAEKVGCPVGDAARMAQCLKVTDPRALTLAYKVPLAGLEYPMLHYVGFVPVIDGDFIPADPINLYANAADIDYIAGTNNMDGHIFASIDMPAINKGNKKVTEEDFYKLVSEFTITKGLRGAKTTFDVYTESWAQDPSQENKKKTVVDFETDVLFLVPTEIALAQHRANAKSAKTYAYLFSHPSRMPVYPKWVGADHADDIQYVFGKPFATPTGYRPQDRTVSKAMIAYWTNFAKTGDPNMGDSAVPTHWEPYTTENSGYLEITKKMGSSSMKRSLRTNFLRYWTLTYLALPTVTDQEATPVPPTGDSEATPVPPTGDSETAPVPPTGDSGAPPVPPTGDSGAPPVPPTGDSGAPPVPPTGDSGAPPVPPTGDSGAPPVPPTGDSGAPPVPPTGDSGAPPVPPTGDAGPPPVPPTGDSGAPPVPPTGDSGAPPVTPTGDSETAPVPPTGDSGAPPVPPTGDSEAAPVPPTDDSKEAQMPAVIRF
With B1, the “Specific activity compared with the other forms of BSSL” value is listed as “higher”.
